Reference: patent US20040185566A1, “Polypeptides toxic to nematodes and methods of use” (priority 2003, published 2004)
Several values for one entry are separate records, joined by “and”; a condition that tells them apart may be missing. Equal values may be shown once.

Columns and labels:
A. suum = experiment: Assay for lytic activity against live A. suum; conditions: for 12 hours Death / 12 hours Lysis / 24 hours Death / 24 hours Lysis: protein conc. 0.1 mg/ml
[1] = Native isoelectric focusing; assay type: physicochemical; conditions: polypeptide produced by S. marcescens NRRL B-23112
Description: The isoelectric point (pI) of purified SMP#1 was determined using a vertical mini-gel system (Roberston et al. 1987) and 1.5 mm polyacrylamide gels consisting of 5% (w/v) 30:1 acrylamide/bisacrylamide, 10% (v/v) glycerol and 2% (w/v) pH 4-8 ampholytes. Electrode solutions were cooled to 4° C. prior to electrophoresis. The anode solution was 20 mM acetic acid and the cathode solution was 25 mM NaOH. Samples and protein standards (Sigma) were mixed with an equal volume of 50% (v/v) glycerol and 4%(w/v) ampholytes in the pH range of 4-8. Samples were prepared for isoelectric focusing by concentrating and desalting in a centriprep concentrator (Amicon) with a molecular mass exclusion limit of 10 000 Da. Electrophoresis was at 25° C. and 200 volts for 1.5 hours. The gels were fixed with 10% (w/v) trichloroacetic acid for 10 minutes with gentle agitation. Ampholytes were removed by shaking the gel for 2 hours in 1% (w/v) trichloroacetic acid. After rinsing with Milli-Q-water, the gels were stained with 0.25% (w/v) Coomassie blue R-250 in 45% (v/v) methanol and 10% (v/v) acetic acid for 10 minutes. The gels were destained in 45% (v/v) methanol and 10% (v/v) acetic acid until the background was clear.

casein = experiment: Proteolytic activity of SMP #1 (casein digestion), pH optimum and activity with detergents/solvents; assay type: biochemical
Description: Proteolytic activity was determined by casein digestion (Kunitz 1947). Substrate consisting of 0.75 ml 1.0% (w/v) casein in 100 mM TRIS/HCL, 1 mM MgCl2 (pH 8) at 30° C. Protease samples (0.1 ml) were brought to 30° C., added to the substrate and incubated at 30° C. After 30 minutes, the reaction was quenched with 0.5ml 10% (w/v) trichloroacetic acid (TCA). After 15 minutes at 25° C., the quenched reaction mixture was centrifuged at 10 000 g for 10 minutes to pellet precipitated protein and the A280 of the supernatant was determined. One unit of proteolytic activity was defined as the amount of enzyme that produced an increase of absorbance at 280 nM of 0.1 under the conditions of the assay.
Several compounds were tested as to characterize the novel protein. Effect of protease inhibitors (30-120 μ/ml antipain dihydrochloride, 1-4 μ/ml aprotinin, 20-80 μg/ml bestatin, 25-50 μg/ml chymostatin, 5-20 μg/ml E-64, 10-60 mM EDTA, 1-74 μg/ml leupeptin, 500-2000 μg/ml Pefabloc SC, 1-4 μ/ml pepstatin, 165-660 μlg/ml phosphoramidon and 100-400 μg/ml PMSF), SDS (0.1%-1%), Tween-20 (0.1%-1%), Triton X-100 (0.1%-1%), ethanol (1%-5%), and 2-mercaptoethanol (0.1%-1%) were determined by addition to the standard reaction mixture. Residual proteolytic activity was determined after incubation at 25° C. for 30 minutes.

R. similis = experiment: Assay for lytic activity against R. similis (microtiter plates); assay type: in vivo
Description: The assays were performed in microtiter plates. Ten microliters of R. similissuspensions were placed in microtiter plate wells. Serially diluted SMP #1 (100U in 0.1 ml stock) was added to the wells. PBS was added to a series of wells containing R. similis as a control. The nematodes were stored at 20° C. and examined for lytic effects or death at 48 and 96 hours.

B1: SMP #1: serratia metalloprotease isolated from S. marcescens NRRL B-23112, amino acid sequence SEQ ID NO:2; selective nematolytic activity (protein, listed as Serratia marcescens)
chain: MQSTKKAIEITESSLAAATTGYDAVDDLLHYHERGNGIQINGKDSFSNEQAGLFITRENQTWNGYKVFGQPVKLTFSFPDYKFSSTNVAGDTGLSKFSAEQQQQAKLSLQSWADVANITFTEVAAGQKANITFGNYSQDRPGHYDYGTQAYAFLPNTIWQGQDLGGQTWYNVNQSNVKHPATEDYGRQTFTHEIGHALGLSHPGDYNAGEGNPTYNDVTYAEDTRQFSLMSYWSETNTGGDNGGHYAAAPLLDDIAAIQHLYGANLSTRTGDTVYGFNSNTGRDFLSTTSNSQKVIFAAWDAGGNDTFDFSGYTANQRINLNEKSFSDVGGLKGNVSIAAGVTIENAIGGSGNDVIVGNAANNVLKGGAGNDVLFGGGGADELWGGAGKDIFVFSAASDSAPGASDWIRDFQKGIDKIDLSFFNKEAQSSDFIHFVDHFSGTAGEALLSYNASSNVTDLSVNIGGHQAPDFLVKIVGQVDVATDFIVHSNGTPGAVSAGRDA
- lysis / mortality of the nematode on contact (A. suum; A. suum): lyses the nematode
- time until cuticle and body wall are lysed and internal viscera expelled (A. suum; A. suum): ≤ 30 h
- 12 hours Death (A. suum; 10 mM 2-mercaptoethanol): (+)
- 12 hours Lysis (A. suum; 10 mM 2-mercaptoethanol): (+++)
- 24 hours Death (A. suum; 10 mM 2-mercaptoethanol): (+)
- 24 hours Lysis (A. suum; 10 mM 2-mercaptoethanol): (+++)
- Isoelectric point [1]: 6.1
- proteolytic activity retained in the presence of additive (casein; 2-mercaptoethanol (0.5% v/v)): retains full activity
- proteolytic activity retained in the presence of additive (casein; SDS (1% w/v)): retains full activity
- proteolytic activity retained in the presence of additive (casein; Triton X-100 (1% w/v)): retains full activity
- proteolytic activity retained in the presence of additive (casein; Tween-20 (1% w/v)): retains full activity
- proteolytic activity retained in the presence of additive (casein; ethanol (5% v/v)): retains full activity
- Optimum pH (casein; polypeptide produced by S. marcescens NRRL B-23112): 10
- Dead (nematodes counted) (R. similis; 10 U/well, 10 wells, 20° C.): 298 and 300
- % mortality (R. similis; 10 U/well, 10 wells, 20° C., significant difference (p < 0.05) between treatments): 99% and 100%
- lysis / mortality of the nematode on contact (R. similis; R. similis): lyses the nematode
- time until cuticle and body wall are lysed and internal viscera expelled (R. similis; R. similis): ≤ 30 h

B2: papain (protein, UniProt P00784 134-345, looked up)
Papain: IPEYVDWRQKGAVTPVKNQGSCGSCWAFSAVVTIEGIIKIRTGNLNEYSEQELLDCDRRSYGCNGGYPWSALQLVAQYGIHYRNTYPYEGVQRYCRSREKGPYAAKTDGVRQVQPYNEGALLYSIANQPVSVVLEAAGKDFQLYRGGIFVGPCGNKVDHAVAAVGYGPNYILIKNSWGTGWGENGYIRIKRGTGNSYGVCGLYTSSFYPVKN
- 12 hours Death (A. suum; 2-mercaptoethanol 0): (+)
- 12 hours Lysis (A. suum; 2-mercaptoethanol 0): (+++)
- 24 hours Death (A. suum; 2-mercaptoethanol 0): (+)
- 24 hours Lysis (A. suum; 2-mercaptoethanol 0): (+++)
